The record followed here is patent publication US20130189747A1, “Compositions Comprising A Polypeptide Having Cellulolytic Enhancing Activity And A Sulfur-Containing Compound And Uses Thereof” (priority 2010, published 2013).

What all share (type): biochemical
In series [1] the test system is Trichoderma reesei cellulase composition. The series is described as follows: Hydrolysis of AVICEL® (microcrystalline cellulose) by the Trichoderma reesei cellulase composition with/without GH61 polypeptide and sulfur-containing compound. The procedure: (§1) The effect of various sulfur-containing compounds on the cellulolytic enhancing activity of GH61 polypeptides was evaluated according to the procedures described below.

Series [2] has the same test system. The series is described as follows: Hydrolysis of milled unwashed pretreated corn stover (PCS) by the Trichoderma reesei cellulase composition with/without GH61 polypeptide and sulfur-containing compound. The settings on record: for Enhancement of hydrolysis of milled unwashed PCS by the GH61 polypeptide: no sulfur-containing compound. The procedure: as §1
Series [3] shares this test system. The series is described as follows: Hydrolysis of milled washed pretreated corn stover (PCS) by the Trichoderma reesei cellulase composition with/without GH61 polypeptide and sulfur-containing compound. The settings on record: for Enhancement of hydrolysis of milled washed PCS by the GH61 polypeptide: no sulfur-containing compound; for GH61 effect (Equation 4): in the absence of L-cysteine (Example 4); for Percent conversion of milled washed PCS: no L-cysteine. The procedure: as §1

“Also recorded” adds a separate entry of the source.

B1: T. aurantiacus GH61A polypeptide: GH61A polypeptide having cellulolytic enhancing activity (SEQ ID NO: 14), recombinantly prepared in Aspergillus oryzae JaL250 (protein, listed as Thermoascus aurantiacus)
chain: MSFSKIIATAGVLASASLVAGHGFVQNIVIDGKYYGGYLVNQYPYMSNPPEVIAWSTTATDLGFVDGTGYQTPDIICHRGAKPGALTAPVSPGGTVELQWTPWPDSHHGPVINYLAPCNGDCSTVDKTQLEFFKIAESGLINDDNPPGIWASDNLIAANNSWTVTIPTTIAPGNYVLRHEIIALHSAQNQDGAQNYPQCINLQVTGGGSDNPAGTLGTALYHDTDPGILINIYQKLSSYIIPGPPLYTG
B1: the “GH61 effect (Equation 4)” value is 1 in series [1] (AVICEL®, day 1, in the absence of L-cysteine, all GH61 concentrations tested (5.6, 14, 28 mg per liter), FIG. 3B); 1.19±0.08 in series [2] (milled unwashed PCS, 7 days, in the absence of L-cysteine (Example 4)); 1.31±0.030 in series [3] (PCS, 3 days); “approximately 1.31±0.03” in series [3] (milled washed PCS, 7 days). In addition, in series [1] (AVICEL®, day 1, intermediate L-cysteine concentrations, FIG. 3B), the “GH61 polypeptide concentration at which the GH61 effect was maximal” value is reported as “approximately 15 mg per liter”. Further, the “Effect of the GH61 polypeptide on hydrolysis of AVICEL® (microcrystalline cellulose) by the T. reesei cellulase composition” value in series [1] (in the absence of a sulfur-containing compound) is recorded as “did not enhance; also recorded: no detectable effect”. Moreover, the “Enhancement of hydrolysis of milled unwashed PCS by the GH61 polypeptide” value in series [2] (1 day) was 19%; in series [2] (3 days), 21%; in series [2] (7 days) it was 19%. The “Enhancement of hydrolysis of milled washed PCS by the GH61 polypeptide” value in series [3] (1 day) is given as 14%; in series [3] (3 days) it was 31%; in series [3] (7 days), 31%. Besides, the “Percent conversion of milled washed PCS” value in series [3] (day 1, GH61 polypeptide at 10% (w/w) of the cellulase composition (2 mg per g cellulose)) amounted to 27±0.8%; in series [3] (day 1, GH61 polypeptide at 25% (w/w) of the cellulase composition (2 mg per g cellulose)), 27±0.8%; in series [3] (day 1, GH61 polypeptide at 50% (w/w) of the cellulase composition (2 mg per g cellulose)), 27±0.8%; in series [3] (day 3, GH61 polypeptide at 10% (w/w) of the cellulase composition (2 mg per g cellulose)), 55±3%; in series [3] (day 3, GH61 polypeptide at 25% (w/w) of the cellulase composition (2 mg per g cellulose)) it was 57±0.5%; in series [3] (day 3, GH61 polypeptide at 50% (w/w) of the cellulase composition (2 mg per g cellulose)), 59±2%.
